± gives the uncertainty stated by the source.
Experiment: protein stability index of a GFP-peptide fusion (yeast GPS) (PSI 1-4); higher = more stable; sorted into four equal gates, so the index is relative within each strain
Summary of the method: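 The protein stability index combines read frequencies across sorting gates, each weighted by its gate number and then summed. To obtain those frequencies, a pooled yeast library of GFP fusions to tiled 17-residue yeast protein peptides, on a plasmid also expressing Cherry, was grown to mid-log phase in leucine-free medium. The cells were sorted into four equal gates by GFP/Cherry ratio before plasmid amplification by PCR and Illumina sequencing.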

Sequence	protein stability index (doa10∆)	protein stability index (pdr5∆)	protein stability index (san1∆)	protein stability index (ubr1∆)
SLAKSSALWSSRKGIAF [ECM29]	1.9 ± 0.069	1.88 ± 0.14	1.83 ± 0.12	1.59 ± 0.15
CPEEFAESMCQELELPG [SNF5]	3.25 ± 0.073	3 ± 0.074	2.71 ± 0.07	3.03 ± 0.075
SFGKIYVTKPMVNESDG [RPB2]	3.12 ± 0.19	3.18 ± 0.14	3.01 ± 0.2	3.26 ± 0.24
ANEEPNTENVESVPTPA [ITC1]	2.87 ± 0.14	2.91 ± 0.11	2.98 ± 0.26	3.18 ± 0.15
PTATPSPFRPLEKTSRI [YMR153W/NUP53]	2.89 ± 0.1	2.51 ± 0.058	2.57 ± 0.11	2.81 ± 0.054
RVVRPKSLDAETEAEED [RPO21]	2.25 ± 0.19	1.21 ± 0.13	1.21 ± 0.19	1.31 ± 0.29
YKQAMNETSEQLVPIRL [SNF5]	3.23 ± 0.16	3.12 ± 0.15	3.08 ± 0.22	3.43 ± 0.12
YLAENPDPNFENSIGYN [PRP8]	3.28 ± 0.065	3.08 ± 0.061	3.12 ± 0.088	3.19 ± 0.054
FLELTRRADVKTATVKI [RPL38]	1.67 ± 0.05	1.77 ± 0.041	2.02 ± 0.077	1.2 ± 0.042
GFNMKKITTSTEDQKVT [SRP68]	2.84 ± 0.065	2.67 ± 0.051	2.83 ± 0.074	2.42 ± 0.04
AEEAAAEEEEESDDDMG [RPP0]	3.62 ± 0.12	2.94 ± 0.15	3.23 ± 0.056	3.27 ± 0.068
LESIQKTKEAVAALKAV [RPL4A]		3.37 ± 0.2	2.82 ± 0.27	2.88 ± 0.17
LKFMAASEVATHSKLFA [PRP8]	2.91 ± 0.085	3.07 ± 0.082	2.78 ± 0.062	2.7 ± 0.073
SSKPAFNLISNAGTEKE [YLR335W/NUP2]	3.13 ± 0.094	2.95 ± 0.098	3.13 ± 0.065	3.07 ± 0.061
ALYPQEARLRNLTYSSG [RPB2]	2.39 ± 0.093	2.73 ± 0.1	2.75 ± 0.085	2.49 ± 0.089
TEHVRQNAKLLANLIRD [RRP6]	1.54 ± 0.046	1.93 ± 0.08	2.39 ± 0.14	1.62 ± 0.086
DRDESSPYAAMLAAQDV [RPS14A]	3.02 ± 0.088	3.21 ± 0.072	2.55 ± 0.09	3.27 ± 0.078
IVDPTAEQLKISLSVHT [RRP46]	1.64 ± 0.042	1.81 ± 0.044	2.34 ± 0.057	2.04 ± 0.043
KFLNFRPPNGIKNFKSL [SSN2]	1.87 ± 0.04	1.83 ± 0.04	2.16 ± 0.061	1.79 ± 0.031
SVINVSAQRDRRYRKRV [RPS17A]	2.34 ± 0.06	2.06 ± 0.063	1.71 ± 0.1	2.06 ± 0.08
ENEEFITFLQTLYIGNT [ECM29]	2.06 ± 0.055	2.42 ± 0.036	2.38 ± 0.11	2.22 ± 0.066

Sequence	protein stability index (doa10∆)	protein stability index (pdr5∆)	protein stability index (san1∆)	protein stability index (ubr1∆)
KSMELFYDIRSLLERHI [YJL039C/NUP192]	2.84 ± 0.044	2.99 ± 0.038	2.91 ± 0.04	3.07 ± 0.046
SIQMEFMLRKQDPKTLV [SSN2]	1.73 ± 0.066	2 ± 0.049	1.82 ± 0.08	2.05 ± 0.045
HIQVNQAPKQRRRTYRA [RPL17A]	1.89 ± 0.12	2.34 ± 0.11	2.38 ± 0.2	3.28 ± 0.14
LLERTREIHNEAESQLR [FAS2]	2.97 ± 0.12	2 ± 0.087	2.21 ± 0.22	2.54 ± 0.08
NFETEWNLQTLAADDAF [RPB11]	2.68 ± 0.16	2.83 ± 0.13		2.54 ± 0.13
EDGTIESYNQNDWKLET [SIN4]	3.29 ± 0.22	3.02 ± 0.2	3.22 ± 0.12	2.98 ± 0.11
IIVENSGTSGDEDVDVL [RPN2]	3.3 ± 0.12	3.61 ± 0.095	3.5 ± 0.075	3.52 ± 0.095
ADINKNFLSVITNKHQE [RPN2]	1.93 ± 0.074	2.11 ± 0.06	1.84 ± 0.087	1.71 ± 0.057
ALDGDLIELLEKLDVSR [YCG1]	3.27 ± 0.25	3.42 ± 0.2	3.16 ± 0.13	2.73 ± 0.2
KPQLKFKSPIDNSESHP [RRP6]	2.77 ± 0.083	3.06 ± 0.06	2.89 ± 0.084	3.12 ± 0.034
DDLALPYQHPPNIFPNL [ITC1]	3.37 ± 0.097	3.43 ± 0.12	3.43 ± 0.074	3.21 ± 0.046
SQPNNTPSFSFGKTTAN [YLR335W/NUP2]	2.76 ± 0.054	2.84 ± 0.051	2.78 ± 0.058	2.87 ± 0.048
HTSIRETLENGETRMKM [SMC2]	2.65 ± 0.11	2.79 ± 0.13	2.85 ± 0.12	2.95 ± 0.083
GNMCRGGRMFAPTKTWR [RPL4A]	2.92 ± 0.078	2.61 ± 0.12	3.04 ± 0.063	2.34 ± 0.053
NLNRAFNGDQVIVELLP [DIS3]	3.17 ± 0.11	2.92 ± 0.18		3.45 ± 0.15
VKGKNCVVLGCERRSTL [PRE6]			2.84 ± 0.23	
LVYNMTSFEQGEITFDG [RPT4]	2.65 ± 0.095	2.33 ± 0.079	2.97 ± 0.085	2.94 ± 0.17
QVSEVDPGRYNKVCRIE [RPB8]	3.07 ± 0.13	3.04 ± 0.081	2.65 ± 0.084	2.93 ± 0.06
RGIPRLSEDELRELDVE [SMC4]	3.44 ± 0.14	3.68 ± 0.21	3.36 ± 0.14	3.57 ± 0.11
RRQAVDVSPLRRVNQAI [RPS5]	2.63 ± 0.083	2.62 ± 0.094	2.69 ± 0.078	2.75 ± 0.083
